The test system of data set [1] is Nb.BsaI N441D/R442G (A11) N441D/R442G. The experiment in a line: cleavage_in_vitro. The following applies: bottom-strand nicking; estimated in cell extract.
Data set [2] has as its system Nb.BsaI R442G R442G. Nature of the data set: cleavage_in_vitro. The following applies: predominant nicking; about 8-fold lower than N441D/R442G.

With “GGTCTCNNNNN (double strand) [BsaI site (in supercoiled pUC19)]”, the activity (units/g wet cells) in data set [1] was 800000; in data set [2], 100000.
